Values of other authors in paper PMC3288267.

Key:
[1] = biological target: transferrin receptor 1 (TfR), immobilised on SPR chip (UniProt P02786); assay: Surface plasmon resonance, equilibrium binding; conditions: pH endosomal pH (numeric value not given)
[2] = biological target: transferrin receptor 1 (TfR), immobilised on SPR chip (UniProt P02786); assay: Surface plasmon resonance, kinetic; conditions: pH endosomal pH (numeric value not given)

Sequence of UniProt P02786 (P02786 whole entry): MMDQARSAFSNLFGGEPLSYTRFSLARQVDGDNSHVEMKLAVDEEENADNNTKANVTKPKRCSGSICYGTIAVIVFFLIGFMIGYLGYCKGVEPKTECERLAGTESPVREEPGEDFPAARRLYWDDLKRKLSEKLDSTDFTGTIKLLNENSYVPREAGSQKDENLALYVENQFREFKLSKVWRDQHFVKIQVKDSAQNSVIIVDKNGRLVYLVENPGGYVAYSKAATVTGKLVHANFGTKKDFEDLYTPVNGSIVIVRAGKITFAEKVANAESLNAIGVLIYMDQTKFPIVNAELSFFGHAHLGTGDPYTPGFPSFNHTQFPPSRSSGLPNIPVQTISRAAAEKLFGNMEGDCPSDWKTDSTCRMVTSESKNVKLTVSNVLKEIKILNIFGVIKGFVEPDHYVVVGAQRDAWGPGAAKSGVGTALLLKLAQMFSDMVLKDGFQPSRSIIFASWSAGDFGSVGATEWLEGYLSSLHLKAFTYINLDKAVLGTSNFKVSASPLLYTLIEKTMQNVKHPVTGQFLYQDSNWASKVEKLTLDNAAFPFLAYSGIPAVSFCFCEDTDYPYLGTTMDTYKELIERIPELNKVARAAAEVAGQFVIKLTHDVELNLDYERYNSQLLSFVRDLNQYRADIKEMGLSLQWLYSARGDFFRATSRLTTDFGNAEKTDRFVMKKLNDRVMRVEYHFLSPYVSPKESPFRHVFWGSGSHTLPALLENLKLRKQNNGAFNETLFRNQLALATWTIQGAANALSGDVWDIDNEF

**Q.** What does the source list for “apo-transferrin (iron-free), SPR analyte”?
**A.** KD (equilibrium SPR) [1]: <15 nM; KD (from kd,end/ka,end) [2]: 1.3 nM; ka,end (association rate constant; kend,a in Table 1) [2]: 4.4 ± 0.4 × 10^7 min^−1 M^−1; kd,end (dissociation rate constant; kend,d in Table 1) [2]: 0.000933 ± 0.0002 s⁻¹
